{"source": "patent US20240317895A1", "key": {"[1]": {"target": "PT linker-SpyCatcher-His (Streptococcus pyogenes)", "assay": "depletion of SpyTag-GA (10 mg/g carrier) from E. coli lysate supernatant, SDS-PAGE densitometry; SpyCatcher on LX-107S epoxy carrier (blocking control without SpyCatcher 72.5)"}, "[2]": {"target": "PT linker-SpyCatcher-His (Streptococcus pyogenes)", "assay": "depletion of SpyTag-GA (10 mg/g carrier) from E. coli lysate supernatant, SDS-PAGE densitometry; SpyCatcher on ECR8285 epoxy carrier"}, "[3]": {"target": "PT linker-SpyCatcher-His (Streptococcus pyogenes)", "assay": "depletion of SpyTag-GA (10 mg/g carrier) from E. coli lysate supernatant, SDS-PAGE densitometry; SpyCatcher on LX-103B epoxy carrier"}, "[4]": {"target": "PT linker-SpyCatcher-His (Streptococcus pyogenes)", "assay": "depletion of SpyTag-GA (15 mg/g resin) from supernatant, conditions of Example 4.3; SpyCatcher modified epoxy carrier, batch 3"}, "[5]": {"target": "PT linker-SpyCatcher-His (Streptococcus pyogenes)", "assay": "depletion of SpyTag-GA (10 mg/g carrier) from E. coli lysate supernatant, SDS-PAGE densitometry; SpyCatcher on ECR8204 epoxy carrier"}, "[6]": {"target": "PT linker-SpyCatcher-His (Streptococcus pyogenes)", "assay": "depletion of SpyTag-GA (15 mg/g resin) from supernatant, conditions of Example 4.3; SpyCatcher modified epoxy carrier, batch 4"}, "[7]": {"target": "PT linker-SpyCatcher-His (Streptococcus pyogenes)", "assay": "depletion of SpyTag-GA (10 mg/g carrier) from E. coli lysate supernatant, SDS-PAGE densitometry; SpyCatcher on HFA001 epoxy carrier"}, "[8]": {"target": "PT linker-SpyCatcher-His (Streptococcus pyogenes)", "assay": "depletion of SpyTag-GA (2.0 mg/g carrier) from E. coli lysate supernatant, SDS-PAGE densitometry; SpyCatcher-LX-1000EP; pH 7.0, 25 C, 2 h"}, "[9]": {"target": "PT linker-SpyCatcher-His (Streptococcus pyogenes)", "assay": "depletion of SpyTag-GA (15 mg/g resin) from supernatant, conditions of Example 4.3; SpyCatcher modified epoxy carrier, batch 5"}, "[10]": {"target": "PT linker-SpyCatcher-His (Streptococcus pyogenes)", "assay": "depletion of SpyTag-GA (15 mg/g resin) from supernatant, conditions of Example 4.3; SpyCatcher modified epoxy carrier, batch 2"}, "[11]": {"target": "PT linker-SpyCatcher-His (Streptococcus pyogenes)", "assay": "depletion of SpyTag-GA (10 mg/g carrier) from E. coli lysate supernatant, SDS-PAGE densitometry; SpyCatcher on LX-1000EP epoxy carrier"}, "[12]": {"target": "PT linker-SpyCatcher-His (Streptococcus pyogenes)", "assay": "depletion of SpyTag-GA (15 mg/g resin) from supernatant, conditions of Example 4.3; SpyCatcher modified epoxy carrier, batch 1"}, "[13]": {"target": "PT linker-SpyCatcher-His (Streptococcus pyogenes)", "assay": "depletion of purified SpyTag-GA (15 mg/g carrier) from supernatant, SDS-PAGE densitometry; SpyCatcher-LX-1000EP; pH 7.0, 25 C, 2 h"}}, "data": [{"substance": "SpyTag-GS linker-GA-His fusion protein of a SpyTag and glutaryl-7-amidocephalosporanic acid acylase (from UniProt P07662 30-720) (enzyme)", "values": [{"measurement": "Immobilization Efficiency (%)", "setting": "[1]", "result": 49.1, "unit": "%"}, {"measurement": "Immobilization Efficiency (%)", "setting": "[2]", "result": 57.4, "unit": "%"}, {"measurement": "Immobilization Efficiency (%)", "setting": "[3]", "result": 77, "unit": "%"}, {"measurement": "Immobilization Efficiency (%)", "setting": "[4]", "result": 90.9, "unit": "%"}, {"measurement": "Immobilization Efficiency (%)", "setting": "[5]", "result": 52.1, "unit": "%"}, {"measurement": "Immobilization Efficiency (%)", "setting": "[6]", "result": 86.6, "unit": "%"}, {"measurement": "Immobilization Efficiency (%)", "setting": "[7]", "result": 79.4, "unit": "%"}, {"measurement": "Immobilization Efficiency (%)", "setting": "[8]", "result": 86.2, "unit": "%"}, {"measurement": "Immobilization Efficiency (%)", "setting": "[9]", "result": 96.9, "unit": "%"}, {"measurement": "Immobilization Efficiency (%)", "setting": "[10]", "result": 92.2, "unit": "%"}, {"measurement": "Immobilization Efficiency (%)", "setting": "[11]", "result": 77.6, "unit": "%"}, {"measurement": "Immobilization Efficiency (%)", "setting": "[12]", "result": 94.7, "unit": "%"}, {"measurement": "Immobilization Efficiency (%)", "setting": "[13]", "result": 91.5, "unit": "%"}]}]}
